In US20230322953A1 (HARBOUR BIOMED SHANGHAI, published 2023):

T1: human BCMA (human, UniProt Q02223 1-184)
T1 construct: whole, on cells; also called hBCMA; TNFRSF17
T1 sequence (looked up): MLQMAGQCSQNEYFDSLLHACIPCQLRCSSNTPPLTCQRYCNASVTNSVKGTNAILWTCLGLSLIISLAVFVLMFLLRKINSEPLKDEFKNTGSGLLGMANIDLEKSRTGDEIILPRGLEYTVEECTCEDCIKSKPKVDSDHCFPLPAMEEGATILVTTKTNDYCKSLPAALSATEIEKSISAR

B1: PR002892 (bispecific antibody, human IgG1, lambda, L234A L235A)
light: QAVVTQEPSLTVSPGGTVTLTCRSSTGAVTTSNYANWVQQKPGQAPRGLIGGTNKRAPWTPARFSGSLLGDKAALTLLGAQPEDEAEYFCALWYSNLWVFGGGTKLTVLGQPKAAPSVTLFPPSSEELQANKATLVCLISDFYPGAVTVAWKADSSPVKAGVETTTPSKQSNNKYAASSYLSLTPEQWKSHRSYSCQVTHEGSTVEKTVAPTECS
heavy: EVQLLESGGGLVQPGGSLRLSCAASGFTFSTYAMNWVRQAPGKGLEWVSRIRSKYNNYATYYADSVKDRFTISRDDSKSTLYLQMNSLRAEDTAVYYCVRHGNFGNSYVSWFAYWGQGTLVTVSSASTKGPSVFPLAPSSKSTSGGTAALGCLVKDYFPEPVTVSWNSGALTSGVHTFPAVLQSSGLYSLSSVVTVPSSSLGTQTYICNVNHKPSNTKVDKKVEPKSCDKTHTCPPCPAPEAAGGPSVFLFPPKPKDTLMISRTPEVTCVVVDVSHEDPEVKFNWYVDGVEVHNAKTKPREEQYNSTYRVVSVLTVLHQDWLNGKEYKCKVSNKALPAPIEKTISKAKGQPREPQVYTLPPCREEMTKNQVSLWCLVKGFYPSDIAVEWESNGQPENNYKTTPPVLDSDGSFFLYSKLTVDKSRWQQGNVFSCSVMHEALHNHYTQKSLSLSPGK
chain: EVQLVETGGGLIQPGGSLRLSCAASGFTVSDNYMTWVRQAPGKGLEWVSVIFSGGNTYYADSVKGRFTISRDNAKNTLYLQMNSLRAEDTALYYCARRNYDDTRGTDVFDIWGQGTMVTVSSGGGGSEVQLVETGGGLIQPGGSLRLSCAASGFTVSDNYMTWVRQAPGKGLEWVSVIFSGGNTYYADSVKGRFTISRDNAKNTLYLQMNSLRAEDTALYYCARRNYDDTRGTDVFDIWGQGTMVTVSSASEPKSSDKTHTCPPCPAPEAAGGPSVFLFPPKPKDTLMISRTPEVTCVVVDVSHEDPEVKFNWYVDGVEVHNAKTKPREEQYNSTYRVVSVLTVLHQDWLNGKEYKCKVSNKALPAPIEKTISKAKGQPREPQVCTLPPSREEMTKNQVSLSCAVKGFYPSDIAVEWESNGQPENNYKTTPPVLDSDGSFFLVSKLTVDKSRWQQGNVFSCSVMHEALHNHYTQKSLSLSPGK
B2: PR002328 (bispecific antibody, human IgG1, lambda, L234A L235A)
light: B1 light
heavy: EVQLLESGGGLVQPGGSLRLSCAASGFTFSTYAMNWVRQAPGKGLEWVSRIRSKYNNYATYYADSVKDRFTISRDDSKSTLYLQMNSLRAEDTAVYYCVRHGNFGNSYVSWFAYWGQGTLVTVSSASTKGPSVFPLAPSSKSTSGGTAALGCLVKDYFPEPVTVSWNSGALTSGVHTFPAVLQSSGLYSLSSVVTVPSSSLGTQTYICNVNHKPSNTKVDKKVEPKSCDKTHTCPPCPAPEAAGGPSVFLFPPKPKDTLMISRTPEVTCVVVDVSHEDPEVKFNWYVDGVEVHNAKTKPREEQYNSTYRVVSVLTVLHQDWLNGKEYKCKVSNKALGAPIEKTISKAKGQPREPQVYTLPPCREEMTKNQVSLWCLVKGFYPSDIAVEWESNGQPENNYKTTPPVLDSDGSFFLYSKLTVDKSRWQQGNVFSCSVMHEALHNHYTQKSLSLSPGK
chain: EVQLVETGGGLIQPGGSLRLSCAASGFTVSSNYMTWVRQAPGKGLEWVSVIFSGGSTYYADSVKGRFTISRDNSKNTLYLQMNSLRAEDTAVYYCARRIAVAGHDVFDIWGQGTMVTVSSRTGGGGSGGGGSGGGGSGGGGSGGGGSKLEVQLVETGGGLIQPGGSLRLSCAASGFTVSDNYMTWVRQAPGKGLEWVSVIFSGGNTYYADSVKGRFTISRDNAKNTLYLQMNSLRAEDTALYYCARRNYDDTRGTDVFDIWGQGTMVTVSSASEPKSSDKTHTCPPCPAPEAAGGPSVFLFPPKPKDTLMISRTPEVTCVVVDVSHEDPEVKFNWYVDGVEVHNAKTKPREEQYNSTYRVVSVLTVLHQDWLNGKEYKCKVSNKALGAPIEKTISKAKGQPREPQVCTLPPSREEMTKNQVSLSCAVKGFYPSDIAVEWESNGQPENNYKTTPPVLDSDGSFFLVSKLTVDKSRWQQGNVFSCSVMHEALHNHYTQKSLSLSPGK
B3: PR002898 (bispecific antibody, human IgG1, lambda, L234A L235A)
light: B1 light
heavy: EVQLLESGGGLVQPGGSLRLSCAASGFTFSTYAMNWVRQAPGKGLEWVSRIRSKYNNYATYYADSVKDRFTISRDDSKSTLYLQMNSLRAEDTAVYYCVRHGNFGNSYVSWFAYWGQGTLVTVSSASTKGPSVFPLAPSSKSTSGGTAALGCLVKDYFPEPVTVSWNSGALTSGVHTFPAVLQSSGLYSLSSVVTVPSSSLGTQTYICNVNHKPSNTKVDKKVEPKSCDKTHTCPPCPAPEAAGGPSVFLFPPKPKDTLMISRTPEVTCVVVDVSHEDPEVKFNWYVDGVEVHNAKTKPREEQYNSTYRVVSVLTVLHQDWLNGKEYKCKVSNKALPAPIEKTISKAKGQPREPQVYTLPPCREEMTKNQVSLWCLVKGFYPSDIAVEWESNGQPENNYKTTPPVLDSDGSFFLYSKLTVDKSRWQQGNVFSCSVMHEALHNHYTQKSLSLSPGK
chain: EVQLVETGGGLIQPGGSLRLSCAASGFTVSDNYMTWVRQAPGKGLEWVSVIFSGGNTYYADSVKGRFTISRDNAKNTLYLQMNSLRAEDTALYYCARRNYDDTRGTDVFDIWGQGTMVTVSSGSEVQLVETGGGLIQPGGSLRLSCAASGFTVSDNYMTWVRQAPGKGLEWVSVIFSGGNTYYADSVKGRFTISRDNAKNTLYLQMNSLRAEDTALYYCARRNYDDTRGTDVFDIWGQGTMVTVSSASEPKSSDKTHTCPPCPAPEAAGGPSVFLFPPKPKDTLMISRTPEVTCVVVDVSHEDPEVKFNWYVDGVEVHNAKTKPREEQYNSTYRVVSVLTVLHQDWLNGKEYKCKVSNKALPAPIEKTISKAKGQPREPQVCTLPPSREEMTKNQVSLSCAVKGFYPSDIAVEWESNGQPENNYKTTPPVLDSDGSFFLVSKLTVDKSRWQQGNVFSCSVMHEALHNHYTQKSLSLSPGK
B4: PR002326 (bispecific antibody, human IgG1, lambda, L234A L235A)
light: B1 light
heavy: B2 heavy
chain: EVQLVETGGGLIQPGGSLRLSCAASGFTVSSNYMTWVRQAPGKGLEWVSVIFSGGSTYYADSVKGRFTISRDNSKNTLYLQMNSLRAEDTAVYYCARRIAVAGHDVFDIWGQGTMVTVSSRTGGGGSGGGGSGGGGSKLEVQLVETGGGLIQPGGSLRLSCAASGFTVSDNYMTWVRQAPGKGLEWVSVIFSGGNTYYADSVKGRFTISRDNAKNTLYLQMNSLRAEDTALYYCARRNYDDTRGTDVFDIWGQGTMVTVSSASEPKSSDKTHTCPPCPAPEAAGGPSVFLFPPKPKDTLMISRTPEVTCVVVDVSHEDPEVKFNWYVDGVEVHNAKTKPREEQYNSTYRVVSVLTVLHQDWLNGKEYKCKVSNKALGAPIEKTISKAKGQPREPQVCTLPPSREEMTKNQVSLSCAVKGFYPSDIAVEWESNGQPENNYKTTPPVLDSDGSFFLVSKLTVDKSRWQQGNVFSCSVMHEALHNHYTQKSLSLSPGK
B5: PR002301 (bispecific antibody, human IgG1, lambda, L234A L235A)
light: B1 light
heavy: B2 heavy
chain: EVQLLESGGGLVQPGGSLRLSCAASGFTFSSYAMIWVRQAPGKGLEWVSGISESGGSTYYADSVKGRFTISRDNSKNTLYLQMNSLRAEDTAVYFCVKDLDDILTGYYKDYWGQGTLVTVSSRTGGGGSGGGGSGGGGSGGGGSGGGGSKLEVQLLESGGGLVQPGGSLRLSCAASGFTFSSYAMIWVRQAPGKGLEWVSGISESGGSTYYADSVKGRFTISRDNSKNTLYLQMNSLRAEDTAVYFCVKDLDDILTGYYKDYWGQGTLVTVSSASEPKSSDKTHTCPPCPAPEAAGGPSVFLFPPKPKDTLMISRTPEVTCVVVDVSHEDPEVKFNWYVDGVEVHNAKTKPREEQYNSTYRVVSVLTVLHQDWLNGKEYKCKVSNKALGAPIEKTISKAKGQPREPQVCTLPPSREEMTKNQVSLSCAVKGFYPSDIAVEWESNGQPENNYKTTPPVLDSDGSFFLVSKLTVDKSRWQQGNVFSCSVMHEALHNHYTQKSLSLSPGK
B6: PR002308 (bispecific antibody, human IgG1, lambda, L234A L235A)
light: B1 light
heavy: B2 heavy
chain: EVQLVETGGGLIQPGGSLRLSCAASGFTVSDNYMTWVRQAPGKGLEWVSVIFSGGNTYYADSVKGRFTISRDNAKNTLYLQMNSLRAEDTALYYCARRNYDDTRGTDVFDIWGQGTMVTVSSRTGGGGSKLEVQLVETGGGLIQPGGSLRLSCAASGFTVSDNYMTWVRQAPGKGLEWVSVIFSGGNTYYADSVKGRFTISRDNAKNTLYLQMNSLRAEDTALYYCARRNYDDTRGTDVFDIWGQGTMVTVSSASEPKSSDKTHTCPPCPAPEAAGGPSVFLFPPKPKDTLMISRTPEVTCVVVDVSHEDPEVKFNWYVDGVEVHNAKTKPREEQYNSTYRVVSVLTVLHQDWLNGKEYKCKVSNKALGAPIEKTISKAKGQPREPQVCTLPPSREEMTKNQVSLSCAVKGFYPSDIAVEWESNGQPENNYKTTPPVLDSDGSFFLVSKLTVDKSRWQQGNVFSCSVMHEALHNHYTQKSLSLSPGK
B7: PR002313 (bispecific antibody, human IgG1, lambda, L234A L235A)
light: B1 light
heavy: B2 heavy
chain: EVQLLESGGGLVQPGGSLRLSCAASGFTFSSYAMIWVRQAPGKGLEWVSGISESGGSTYYADSVKGRFTISRDNSKNTLYLQMNSLRAEDTAVYFCVKDLDDILTGYYKDYWGQGTLVTVSSRTGGGGSGGGGSGGGGSKLEVQLVETGGGLIQPGGSLRLSCAASGFPVSSNYMSWVRQAPGKGLEWVSVIFSGGRTYYADSVKGRFTISRDNSKNTLYLQMNSLRAEDTAVYYCARRNWIDGRDAFDIWGQGTMVTVSSASEPKSSDKTHTCPPCPAPEAAGGPSVFLFPPKPKDTLMISRTPEVTCVVVDVSHEDPEVKFNWYVDGVEVHNAKTKPREEQYNSTYRVVSVLTVLHQDWLNGKEYKCKVSNKALGAPIEKTISKAKGQPREPQVCTLPPSREEMTKNQVSLSCAVKGFYPSDIAVEWESNGQPENNYKTTPPVLDSDGSFFLVSKLTVDKSRWQQGNVFSCSVMHEALHNHYTQKSLSLSPGK
B8: PR002310 (bispecific antibody, human IgG1, lambda, L234A L235A)
light: B1 light
heavy: B2 heavy
chain: EVQLVETGGGLIQPGGSLRLSCAASGFTVSDNYMTWVRQAPGKGLEWVSVIFSGGNTYYADSVKGRFTISRDNAKNTLYLQMNSLRAEDTALYYCARRNYDDTRGTDVFDIWGQGTMVTVSSRTGGGGSGGGGSGGGGSGGGGSGGGGSKLEVQLVETGGGLIQPGGSLRLSCAASGFTVSDNYMTWVRQAPGKGLEWVSVIFSGGNTYYADSVKGRFTISRDNAKNTLYLQMNSLRAEDTALYYCARRNYDDTRGTDVFDIWGQGTMVTVSSASEPKSSDKTHTCPPCPAPEAAGGPSVFLFPPKPKDTLMISRTPEVTCVVVDVSHEDPEVKFNWYVDGVEVHNAKTKPREEQYNSTYRVVSVLTVLHQDWLNGKEYKCKVSNKALGAPIEKTISKAKGQPREPQVCTLPPSREEMTKNQVSLSCAVKGFYPSDIAVEWESNGQPENNYKTTPPVLDSDGSFFLVSKLTVDKSRWQQGNVFSCSVMHEALHNHYTQKSLSLSPGK
B9: PR002950 (bispecific antibody, human IgG1, lambda, L234A L235A)
light: B1 light
heavy: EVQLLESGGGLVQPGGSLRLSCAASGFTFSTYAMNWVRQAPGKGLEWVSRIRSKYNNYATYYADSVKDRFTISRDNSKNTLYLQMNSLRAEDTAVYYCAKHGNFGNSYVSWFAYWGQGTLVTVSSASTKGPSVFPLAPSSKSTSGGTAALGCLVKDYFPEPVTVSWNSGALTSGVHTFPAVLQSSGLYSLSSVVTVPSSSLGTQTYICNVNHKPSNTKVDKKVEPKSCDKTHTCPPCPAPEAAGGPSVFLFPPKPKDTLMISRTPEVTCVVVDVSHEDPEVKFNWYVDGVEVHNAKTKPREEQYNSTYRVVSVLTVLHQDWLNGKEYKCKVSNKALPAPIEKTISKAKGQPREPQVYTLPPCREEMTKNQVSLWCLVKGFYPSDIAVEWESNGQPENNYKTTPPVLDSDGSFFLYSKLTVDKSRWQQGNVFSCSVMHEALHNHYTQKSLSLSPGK
chain: B1 chain
B10: PR002956 (bispecific antibody, human IgG1, lambda, L234A L235A)
light: B1 light
heavy: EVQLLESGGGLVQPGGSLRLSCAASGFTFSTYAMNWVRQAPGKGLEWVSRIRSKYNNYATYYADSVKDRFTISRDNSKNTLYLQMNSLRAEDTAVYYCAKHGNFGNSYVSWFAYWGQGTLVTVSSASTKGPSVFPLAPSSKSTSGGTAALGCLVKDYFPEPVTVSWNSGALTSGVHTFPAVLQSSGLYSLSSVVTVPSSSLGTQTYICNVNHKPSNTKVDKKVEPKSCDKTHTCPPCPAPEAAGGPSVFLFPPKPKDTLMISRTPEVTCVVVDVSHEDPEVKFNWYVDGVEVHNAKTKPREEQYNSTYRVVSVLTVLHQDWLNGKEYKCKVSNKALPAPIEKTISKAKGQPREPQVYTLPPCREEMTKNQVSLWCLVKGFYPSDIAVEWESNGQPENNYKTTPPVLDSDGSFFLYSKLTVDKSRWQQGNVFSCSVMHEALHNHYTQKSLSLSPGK
chain: B3 chain

Molecular target: T2, cynomolgus monkey BCMA (cynomolgus monkey, UniProt A0A2K5UD97 1-183)
T2 construct: whole, on cells; also called cyno BCMA
T2 sequence (A0A2K5UD97 entry or part of it): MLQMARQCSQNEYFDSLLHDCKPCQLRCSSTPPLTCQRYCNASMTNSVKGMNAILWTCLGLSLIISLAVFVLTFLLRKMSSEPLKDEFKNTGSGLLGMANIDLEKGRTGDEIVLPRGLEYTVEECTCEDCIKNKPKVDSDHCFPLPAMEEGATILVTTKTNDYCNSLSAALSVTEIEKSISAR
Assay: FACS on HEK293T/cyno BCMA cells
Description: (§1) This example is intended to investigate the binding activity of anti-BCMA HCAb antibodies to human and cynomolgus monkey BCMAs. […] Specifically, HEK293T/hBCMA cells and HEK293T/cyno BCMA cells were digested and resuspended in a DMEM complete medium. In addition, NCI-H929 cell suspension was collected. The density of each of the three cells was adjusted to 1×10⁶ cells/mL. […] The cells were incubated at 4° C. for 1 h away from light. Thereafter, the cells in each well were rinsed twice with 100 μL of pre-cooled PBS, and centrifuged at 500 g at 4° C. for 5 min, and then the supernatant was discarded. […] The cells in each well were rinsed twice with 100 μL of pre-cooled PBS, and centrifuged at 500 g at 4° C. for 5 min, and then the supernatant was discarded. Finally, the cells in each well were resuspended in 200 μL of pre-cooled PBS. Fluorescence signal values were read using a BD FACS CANTOII flow cytometer or an ACEA NovoCyte flow cytometer, and the data were processed and analyzed using FlowJo v10 (FlowJo, LLC) software. The data were processed and analyzed by plotting using GraphPad Prism 8 software, and binding curves of the antibodies to target cells, EC₅₀ values and other parameters were obtained through four-parameter nonlinear fitting.

| Maximum MFI | Binder |
| --- | --- |
| 15000 | B1 |
| 7810 | B2 |
| 8190 | B3 |
| 6440 | B4 |
| 13000 | B5 |
| 39300 | B6 |
| 7610 | B7 |
| 42000 | B8 |
| 26600 | B9 |
| 16200 | B10 |

Molecular target: T1, human BCMA
Assay: FACS on NCI-H929 cells
Description: as §1

| EC50 | Maximum MFI | Binder |
| --- | --- | --- |
| 4.27 nM | 4360 | B1 |
| 6.89 nM | 58900 | B2 |
| 1.94 nM | 3730 | B3 |
| 3.54 nM | 60000 | B4 |
|  | 53000 | B5 |
| 1.82 nM | 63900 | B6 |
| 17.1 nM | 78000 | B7 |
| 2.09 nM | 61300 | B8 |
| 4.11 nM | 4190 | B9 |
| 3.95 nM | 3570 | B10 |

Molecular target: T1, human BCMA
Assay: FACS on HEK293T/hBCMA cells, Experiment 2
Description: as §1

| EC50 | Maximum MFI | Binder |
| --- | --- | --- |
| 0.767 nM | 15500 | B1 |
| 0.791 nM | 12600 | B3 |
|  | 22100 | B9 |
|  | 17600 | B10 |
